Results as given in the supplement of paper PMC5998384.

Legend:
HeLa Kyoto [1] = assay: melting temperature (median over replicates), in situ; higher = more thermally stable
HeLa Kyoto [2] = assay: thermal stability score vs G1/S (z-score of summed log2 fold changes over temperatures); higher = more thermally stable than in G1/S
[3] = cell cycle stage: early G1 (4.5 h after nocodazole release)
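Throughout, for melting temperature (median over replicates), in situ: HeLa Kyoto cells synchronized by double thymidine or nocodazole block, proteins quantified by TMT10plex mass spectrometry, three independent biological replicates.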
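Throughout, for thermal stability score vs G1/S (z-score of summed log2 fold changes over temperatures): synchronized HeLa Kyoto cells, proteins quantified by TMT10plex mass spectrometry, three biological replicates, mitosis taken 0.5 h after nocodazole release, G1/S directly after double thymidine block.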

Sequence	melting temperature (HeLa Kyoto [1]; cell cycle stage: G1/S)	melting temperature (HeLa Kyoto [1]; cell cycle stage: mitosis)	thermal stability score (HeLa Kyoto [2]; [3])	thermal stability score (HeLa Kyoto [2]; cell cycle stage: mitosis)
MARAAPLLAALTALLAAAAAGGDAPPGKIAVVGAGIGGSAVAHFLQQHFGPRVQIDVYEKGTVGGRLATISVNKQHYESGAASFHSLSLHMQDFVKLLGLRHRREVVGRSAIFGGEHFMLEETDWYLLNLFRLWWHYGISFLRLQMWVEEVMEKFMRIYKYQAHGYAFSGVEELLYSLGESTFVNMTQHSVAESLLQVGVTQRFIDDVVSAVLRASYGQSAAMPAFAGAMSLAGAQGSLWSVEGGNKLVCSGLLKLTKANVIHATVTSVTLHSTEGKALYQVAYENEVGNSSDFYDIVVIATPLHLDNSSSNLTFAGFHPPIDDVQGSFQPTVVSLVHGYLNSSYFGFPDPKLFPFANILTTDFPSFFCTLDNICPVNISASFRRKQPQEAAVWRVQSPKPLFRTQLKTLFRSYYSVQTAEWQAHPLYGSRPTLPRFALHDQLFYLNALEWAASSVEVMAVAAKNVALLAYNRWYQDLDKIDQKDLMHKVKTEL [PCYOX1L]	56.6 °C	56.2 °C	0.689	1.38
MATRRLTDAFLLLRNNSIQNRQLLAEQVSSHITSSPLHSRSIAAELDELADDRMALVSGISLDPEAAIGVTKRPPPKWVDGVDEIQYDVGRIKQKMKELASLHDKHLNRPTLDDSSEEEHAIEITTQEITQLFHRCQRAVQALPSRARACSEQEGRLLGNVVASLAQALQELSTSFRHAQSGYLKRMKNREERSQHFFDTSVPLMDDGDDNTLYHRGFTEDQLVLVEQNTLMVEEREREIRQIVQSISDLNEIFRDLGAMIVEQGTVLDRIDYNVEQSCIKTEDGLKQLHKAEQYQKKNRKMLVILILFVIIIVLIVVLVGVKSR [STX16]	51 °C	49.8 °C	-1.14	-0.879
MAYQLYRNTTLGNSLQESLDELIQSQQITPQLALQVLLQFDKAINAALAQRVRNRVNFRGSLNTYRFCDNVWTFVLNDVEFREVTELIKVDKVKIVACDGKNTGSNTTE [GTF2A2]	58.6 °C	53.4 °C	0.419	0.557
MDGPVAEHAKQEPFHVVTPLLESWALSQVAGMPVFLKCENVQPSGSFKIRGIGHFCQEMAKKGCRHLVCSSGGNAGIAAAYAARKLGIPATIVLPESTSLQVVQRLQGEGAEVQLTGKVWDEANLRAQELAKRDGWENVPPFDHPLIWKGHASLVQELKAVLRTPPGALVLAVGGGGLLAGVVAGLLEVGWQHVPIIAMETHGAHCFNAAITAGKLVTLPDITSVAKSLGAKTVAARALECMQVCKIHSEVVEDTEAVSAVQQLLDDERMLVEPACGAALAAIYSGLLRRLQAEGCLPPSLTSVVVIVCGGNNINSRELQALKTHLGQV [SDSL]	55.1 °C	57.9 °C	-3.07	-2.65
MDSFNYTTPDYGHYDDKDTLDLNTPVDKTSNTLRVPDILALVIFAVVFLVGVLGNALVVWVTAFEAKRTINAIWFLNLAVADFLSCLALPILFTSIVQHHHWPFGGAACSILPSLILLNMYASILLLATISADRFLLVFKPIWCQNFRGAGLAWIACAVAWGLALLLTIPSFLYRVVREEYFPPKVLCGVDYSHDKRRERAVAIVRLVLGFLWPLLTLTICYTFILLRTWSRRATRSTKTLKVVVAVVASFFIFWLPYQVTGIMMSFLEPSSPTFLLLKKLDSLCVSFAYINCCINPIIYVVAGQGFQGRLRKSLPSLLRNVLTEESVVRESKSFTRSTVDTMAQKTQAV [C5AR1]	57.8 °C	57.4 °C	-2.16	-2.08
MEEHGVTQTEHMATIEAHAVAQQVQQVHVATYTEHSMLSADEDSPSSPEDTSYDDSDILNSTAADEVTAHLAAAGPVGMAAAAAVATGKKRKRPHVFESNPSIRKRQQTRLLRKLRATLDEYTTRVGQQAIVLCISPSKPNPVFKVFGAAPLENVVRKYKSMILEDLESALAEHAPAPQEVNSELPPLTIDGIPVSVDKMTQAQLRAFIPEMLKYSTGRGKPGWGKESCKPIWWPEDIPWANVRSDVRTEEQKQRVSWTQALRTIVKNCYKQHGREDLLYAFEDQQTQTQATATHSIAHLVPSQTVVQTFSNPDGTVSLIQVGTGATVATLADASELPTTVTVAQVNYSAVADGEVEQNWATLQGGEMTIQTTQASEATQAVASLAEAAVAASQEMQQGATVTMALNSEAAAHAVATLAEATLQGGGQIVLSGETAAAVGALTGVQDANGLVQIPVSMYQTVVTSLAQGNGPVQVAMAPVTTRISDSAVTMDGQAVEVVTLEQ [NRF1]		51.4 °C	-0.324	0.518
MEKWYLMTVVVLIGLTVRWTVSLNSYSGAGKPPMFGDYEAQRHWQEITFNLPVKQWYFNSSDNNLQYWGLDYPPLTAYHSLLCAYVAKFINPDWIALHTSRGYESQAHKLFMRTTVLIADLLIYIPAVVLYCCCLKEISTKKKIANALCILLYPGLILIDYGHFQYNSVSLGFALWGVLGISCDCDLLGSLAFCLAINYKQMELYHALPFFCFLLGKCFKKGLKGKGFVLLVKLACIVVASFVLCWLPFFTEREQTLQVLRRLFPVDRGLFEDKVANIWCSFNVFLKIKDILPRHIQLIMSFCSTFLSLLPACIKLILQPSSKGFKFTLVSCALSFFLFSFQVHEKSILLVSLPVCLVLSEIPFMSTWFLLVSTFSMLPLLLKDELLMPSVVTTMAFFIACVTSFSIFEKTSEEELQLKSFSISVRKYLPCFTFLSRIIQYLFLISVITMVLLTLMTVTLDPPQKLPDLFSVLVCFVSCLNFLFFLVYFNIIIMWDSKSGRNQKKIS [ALG6]	54.2 °C	54.3 °C	0.428	-1.17
METLYRVPFLVLECPNLKLKKPPWLHMPSAMTVYALVVVSYFLITGGIIYDVIVEPPSVGSMTDEHGHQRPVAFLAYRVNGQYIMEGLASSFLFTMGGLGFIILDRSNAPNIPKLNRFLLLFIGFVCVLLSFFMARVFMRMKLPGYLMG [OSTC]		54.8 °C	0.174	0.407
MEVGGDTAAPAPGGAEDLEDTQFPSEEAREGGGVHAVPPDPEDEGLEETGSKDKDQPPSPSPPPQSEALSSTSRLWSPAAPENSPTCSPESSSGGQGGDPSDEEWRSQRKHVFVLSEAGKPIYSRYGSVEALSATMGVMTALVSFVQSAGDAIRAIYAEDHKLVFLQQGPLLLVAMSRTSQSAAQLRGELLAVHAQIVSTLTRASVARIFAHKQNYDLRRLLAGSERTLDRLLDSMEQDPGALLLGAVRCVPLARPLRDALGALLRRCTAPGLALSVLAVGGRLITAAQERNVLAECRLDPADLQLLLDWVGAPAFAAGEAWAPVCLPRFNPDGFFYAYVARLDAMPVCLLLLGTQREAFHAMAACRRLVEDGMHALGAMRALGEAASFSNASSASAPAYSVQAVGAPGLRHFLYKPLDIPDHHRQLPQFTSPELEAPYSREEERQRLSDLYHRLHARLHSTSRPLRLIYHVAEKETLLAWVTSKFELYTCLSPLVTKAGAILVVTKLLRWVKKEEDRLFIRYPPKYSTPPATSTDQAAHNGLFTGL [MON1B]	52.9 °C	52.7 °C	-0.93	-0.544
MFTSEKGVVEEWLSEFKTLPETSLPNYATNLKDKSSLVSSLYKVIQEPQSELLEPVCHQLFEFYRSGEEQLLQFTLQFLPELIWCYLAVSASRNVHSSGCIEALLLGVYNLEIVDKQGHTKVLSFTIPSLSKPSVYHEPSSIGSMALTESALSQHGLSKVVYSGPHPQREMLTAQNRFEVLTFLLLCYNAALTYMPSVSLQSLCQICSRICVCGYPRQHVRKYKGISSRIPVSSGFMVQMLTGIYFAFYNGEWDLAQKALDDIIYRAQLELYPEPLLVANAIKASLPHGPMKSNKEGTRCIQVEITPTSSRISRNAVTSMSIRGHRWKRHGNTELTGQEELMEISEVDEGFYSRAASSTSQSGLSNSSHNCSNKPSIGKNHRRSGGSKTGGKEKETTGESCKDHFARKQTQRAQSENLELLSLKRLTLTTSQSLPKPSSHGLAKTAATVFSKSFEQVSGVTVPHNPSSAVGCGAGTDANRFSACSLQEEKLIYVSERTELPMKHQSGQQRPPSISITLSTD [FAM126A]		50.9 °C	0.141	0.0377
MLCRLGGRWLRPLPALQLWARDLPLAPVPTSGAKRPTLPVWAVAPVSAVHANGWYEALAASSPVRVAEEVLLGVHAATGLPWWGSILLSTVALRGAVTLPLAAYQHYILAKVENLQPEIKTIARHLNQEVAVRANQLGWSKRDARLTYLKNMRRLISELYVRDNCHPFKATVLVWIQLPMWIFMSFALRNLSTGAAHSEGFSVQEQLATGGILWFPDLTAPDSTWILPISVGVINLLIVEICALQKIGMSRFQTYITYFVRAMSVLMIPIAATVPSSIVLYWLCSSFVGLSQNLLLRSPGFRQLCRIPSTKSDSETPYKDIFAAFNTKFISRK [COX18]		57.1 °C	0.867	-0.575
MMKLKSNQTRTYDGDGYKKRAACLCFRSESEEEVLLVSSSRHPDRWIVPGGGMEPEEEPSVAAVREVCEEAGVKGTLGRLVGIFENQERKHRTYVYVLIVTEVLEDWEDSVNIGRKREWFKIEDAIKVLQYHKPVQASYFETLRQGYSANNGTPVVATTYSVSAQSSMSGIR [NUDT3]	53.4 °C	54.7 °C	-1.86	-1.36
MPGRSCVALVLLAAAVSCAVAQHAPPWTEDCRKSTYPPSGPTYRGAVPWYTINLDLPPYKRWHELMLDKAPVLKVIVNSLKNMINTFVPSGKIMQVVDEKLPGLLGNFPGPFEEEMKGIAAVTDIPLGEIISFNIFYELFTICTSIVAEDKKGHLIHGRNMDFGVFLGWNINNDTWVITEQLKPLTVNLDFQRNNKTVFKASSFAGYVGMLTGFKPGLFSLTLNERFSINGGYLGILEWILGKKDVMWIGFLTRTVLENSTSYEEAKNLLTKTKILAPAYFILGGNQSGEGCVITRDRKESLDVYELDAKQGRWYVVQTNYDRWKHPFFLDDRRTPAKMCLNRTSQENISFETMYDVLSTKPVLNKLTVYTTLIDVTKGQFETYLRDCPDPCIGW [ASAH1]	55.8 °C	55.9 °C	-1.25	-2.17
MPKNKKRNTPHRGSSAGGGGSGAAAATAATAGGQHRNVQPFSDEDASIETMSHCSGYSDPSSFAEDGPEVLDEEGTQEDLEYKLKGLIDLTLDKSAKTRQAALEGIKNALASKMLYEFILERRMTLTDSIERCLKKGKSDEQRAAAALASVLCIQLGPGIESEEILKTLGPILKKIICDGSASMQARQTCATCFGVCCFIATDDITELYSTLECLENIFTKSYLKEKDTTVICSTPNTVLHISSLLAWTLLLTICPINEVKKKLEMHFHKLPSLLSCDDVNMRIAAGESLALLFELARGIESDFFYEDMESLTQMLRALATDGNKHRAKVDKRKQRSVFRDVLRAVEERDFPTETIKFGPERMYIDCWVKKHTYDTFKEVLGSGMQYHLQSNEFLRNVFELGPPVMLDAATLKTMKISRFERHLYNSAAFKARTKARSKCRDKRADVGEFF [IFRD1]	56.4 °C		0.75	1.11
MQPPGPPPAYAPTNGDFTFVSSADAEDLSGSIASPDVKLNLGGDFIKESTATTFLRQRGYGWLLEVEDDDPEDNKPLLEELDIDLKDIYYKIRCVLMPMPSLGFNRQVVRDNPDFWGPLAVVLFFSMISLYGQFRVVSWIITIWIFGSLTIFLLARVLGGEVAYGQVLGVIGYSLLPLIVIAPVLLVVGSFEVVSTLIKLFGVFWAAYSAASLLVGEEFKTKKPLLIYPIFLLYIYFLSLYTGV [YIPF4]	57.7 °C	56.1 °C	-0.481	-2.96
MREYKVVVLGSGGVGKSALTVQFVTGSFIEKYDPTIEDFYRKEIEVDSSPSVLEILDTAGTEQFASMRDLYIKNGQGFILVYSLVNQQSFQDIKPMRDQIIRVKRYERVPMILVGNKVDLEGEREVSYGEGKALAEEWSCPFMETSAKNKASVDELFAEIVRQMNYAAQPNGDEGCCSACVIL [RAP2B]	59.2 °C	60.7 °C	-0.0087	0.542
